The text below walks through data of patent US20240209089A1 (SUZHOU SMARTNUCLIDE BIOPHARMACEUTICAL, published 2024).

Test [1] concerns the target T1, CD8α-Fc fusion protein (human).
T1 construct: also called CD8 α-Fc protein; CD8α-Fc tag antigen
Briefly: ELISA on coated CD8α-Fc, anti-his-HRP, four-parameter fit. On the procedure: (§1) The CD8 α-Fc protein was transiently expressed by HEK293 and purified by protein A affinity chromatography. The plate was coated with the obtained CD8α-Fc protein in a concentration of 0.5 μg/well at 4° C. overnight, and then the gradient dilution series of the obtained anti-CD8α single domain antibody protein was added to react for 1 hour at room temperature. After washing, anti-his horseradish peroxidase labeled antibody was added to react for 1 hour at room temperature. After washing, a chromogenic solution was added, and an absorption value at 450 nm was read. The data processing and plotting analysis were performed by using software SotfMaxPro v5.4. […] Of the 10 selected antibodies (see Table 5 for details), the relative activities of different anti-CD8α single domain antibodies were compared by using C2-cHis as control, so as to reflect the affinity of the antibodies on CD8α. Of the 10 tested antibodies, C37, C42, C46, S5 and S36 have relatively high binding activity.

The target of test [2] is T2, human CD8α full-length protein (human, UniProt P01732 22-235).
T2 construct: whole, on cells; The same entry is used for MC38-CD8α transfectants and for human CD8+ T cells from peripheral blood; the assay field says which cells; also called cell surface CD8α; MC38-CD8α cells
T2 sequence (P01732 22-235): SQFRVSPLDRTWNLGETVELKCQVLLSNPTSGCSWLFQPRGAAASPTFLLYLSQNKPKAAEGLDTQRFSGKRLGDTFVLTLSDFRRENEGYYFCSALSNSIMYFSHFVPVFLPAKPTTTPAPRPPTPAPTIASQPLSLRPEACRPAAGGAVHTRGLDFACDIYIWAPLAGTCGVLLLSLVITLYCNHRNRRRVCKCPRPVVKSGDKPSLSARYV
Description: flow cytometry on MC38-CD8α cells, secondary antibody-PE. On the procedure:
Mouse colon cancer MC38 cell lines stable transfected with human CD8α full-length protein gene were constructed to obtain MC38 cells (MC38-CD8α cells) stably expressing human CD8α proteins on the cell membrane. Prior to use, the cells were cultured to >90% convergence. The anti-CD8α single domain antibody was used to perform flow cytometry on these cells for quantitative analysis of indirect immunofluorescence staining so as to determine the quantity of receptors on surface of each cell.
The cells were collected and suspended to a concentration of 2.5×10⁶ cells/mL. 200 μL of cell aliquot samples were mixed with 20 μL of primary antibody, and the obtained mixture was incubated for 30 min on ice. The cells were centrifuged, washed and re-suspended, then 5 μL of secondary antibody-PE conjugate was added, and then the above mixture was incubated for 30 minutes on ice. The cells were washed twice, re-suspended and underwent flow cytometry on BD FACSCelesta™. For each tube, at least 5×10⁴ events were collected. All the analyses were single colors, and PE was detected in […].

In a further test the target is T3, CD8α-cHis fusion protein (UniProt P01732 22-182).
T3 construct: not shown: C-terminal His tag
T3 sequence (P01732 22-182): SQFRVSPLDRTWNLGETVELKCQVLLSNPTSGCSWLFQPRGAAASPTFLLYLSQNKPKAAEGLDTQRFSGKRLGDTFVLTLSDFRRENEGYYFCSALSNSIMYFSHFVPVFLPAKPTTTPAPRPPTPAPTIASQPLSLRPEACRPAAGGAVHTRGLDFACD
Briefly: BLI (ForteBio Octet), biotinylated antibody on SA sensor, CD8α-chis 6.25-100 nM. How it is done: The anti-CD8α single domain antibody-biontin was fixed on an SA biological sensor. Then, CD8α-chis with a concentration of 6.25-100 nM bound to a nano antibody and then dissociated. The binding dynamic variables of four antibodies C37, C42, C46 and S5 were evaluated and determined by using Octet Data Analysis version 9.0, including Kon, Koff and Kd.

Test [3] deals with T1, CD8α-Fc fusion protein. Description: ELISA on coated CD8α-Fc, antibody after exchange into NaHCO3 buffer, relative to the uncoupled antibody as standard. How it is done: By using PD-10 column (GE), the buffer of the CD8α-cHis single domain antibody (including C37, C46 and S5) was changed to a NaHCO3 buffer solution with a certain pH, and p-SCN-Bn-NOTA (Macrocyclics, article No. B-605) was dissolved into DMSO with a concentration of 25 mg/mL, and the p-SCN-Bn-NOTA solution whose molar was twice that of lysine on the single domain antibody was added into the CD8α single domain antibody, the above materials reacted for a certain time period at room temperature, the conjugated product was purified by PD-10 column (GE) and concentrated by ultrafiltration.
The activity of the above CD8α-NOTA after labeling was determined by ELISA. The specific method is as follows: the CD8α-Fc fusion protein was placed in the coated plate in a concentration of 5 μg/well at 4° C. overnight. After blocking with 3% BSA at 37° C., samples subjected to gradient dilution (the uncoupled CD8α single domain antibody was a standard substance) were added to act for 1 hour at 37° C. Then, anti-his-HRP (purchased from Abcam Company) was added to react for 1 hour at room temperature. Then, a chromogenic solution was added, and the absorption value at 450 nm was read.

The target of test [4] is T1, CD8α-Fc fusion protein. Description: ELISA on coated CD8α-Fc, relative to C2-cHis control. How it is done: as §1
The target in test [5] is T2, human CD8α full-length protein. Description: competition binding on MC38-CD8 cells, displacement of ^125I-SNA006a, 4 °C, 2 h. How it is done: (§2) The 96-well cell suction filter plate was saturated with a binding buffer and dried in air before use.
(§3) After reaction for 2 hours at 4° C., the reaction solution in the suction filter plate was drained using auxiliary equipment of a vacuum pump and the suction filter plate, 200 μL of PBS buffer (0.01 M, pH=7.4) was added into each well and drained, and the cells were repeatedly washed for 6 times. After the filter membrane at the bottom of the suction filter plate was dried, the filter membrane at the bottom was collected, and a γ counter was used for measurement. Calculation and plotting were performed by using Prism 7.0 (GraphPad Software, Inc.), and the half inhibition concentration IC50 was calculated by nonlinear regression analysis. Four parallel samples were set at each experimental point, and the experiment was repeated twice. The result given in this experiment is an average value plus a standard deviation.

Test [6] shares this target. Description: competition radioligand binding on MC38-CD8 cells, 2 h at 4 °C; unlabeled SNA006a varied against the tracer 125I-SNA006a. How it is done: as §2, §3

T1 sequence (chain, as listed by the source): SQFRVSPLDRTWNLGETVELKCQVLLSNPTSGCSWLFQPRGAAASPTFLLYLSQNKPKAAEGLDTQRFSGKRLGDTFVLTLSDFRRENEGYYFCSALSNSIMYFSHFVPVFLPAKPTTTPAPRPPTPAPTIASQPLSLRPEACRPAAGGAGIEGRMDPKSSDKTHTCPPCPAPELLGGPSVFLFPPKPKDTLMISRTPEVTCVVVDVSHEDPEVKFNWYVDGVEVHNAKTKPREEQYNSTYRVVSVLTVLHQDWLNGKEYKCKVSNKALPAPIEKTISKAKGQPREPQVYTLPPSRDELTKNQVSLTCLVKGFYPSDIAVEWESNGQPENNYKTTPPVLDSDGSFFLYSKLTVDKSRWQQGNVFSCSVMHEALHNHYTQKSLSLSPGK

B1: C37-cHis antibody (VHH)
VHH: QLQLVESGGGLVQAGGSLRLSCAASGLTFEDYAIGWFRQAPGKEREGISCIRIYDGNTYSAESVKGRFTISSDNAKNQVYLQINTLKPEDTAVYYCAAGSYYSCSVYPDYDMDYWGKGTLVTVSS
notes: HEK293 construct; an E. coli preparation is also described; Biotinylated for the ForteBio assay; also called C37-his; SNA006a
Consider B1, for which the EC50 with CD8α-Fc fusion protein [1] was determined as 0.989 ng/mL. For the same molecule, the “Positive rate (%)” value in test [2] was determined as 99.8%. Moreover, in the test with CD8α-cHis fusion protein, binding was put at a Kd of 0.644 nM, the koff was determined as 0.000311 s⁻¹ and the kon is 483000 M⁻¹ s⁻¹. Besides, in the test with CD8α-Fc fusion protein [3], the “Relative activity of CD8α-cHis-NaHCO3 (%)” value turned out to be 76%. Moreover, the “Relative activity (%)” value in the test with CD8α-Fc fusion protein [4] is 322%. The molecule further yielded an IC50 in test [5] of around 3 nM. Moreover, in test [6], the IC50 was found to be 3.02 nM and the “IC50 (read off the curve)” value is around 3 nM.
